Residue numbers refer to the chain shown, from its start. Each block holds one binder with its values, some of them ahead of it.
Columns and labels:
[1] = target: T1, monkey CD137 protein (Biacore) (cynomolgus monkey, UniProt Q07011 24-179 (human entry), limits assumed); assay: SPR Biacore, IgG captured
T1 construct: Construct used as SPR analyte not described; also called Cyno CD137
T1 chain: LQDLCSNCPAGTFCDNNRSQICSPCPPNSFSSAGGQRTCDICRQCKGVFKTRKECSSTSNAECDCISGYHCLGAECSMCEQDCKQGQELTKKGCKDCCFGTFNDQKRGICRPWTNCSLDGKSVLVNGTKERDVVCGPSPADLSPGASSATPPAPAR

Hu_GTF34AAA = target: T2, Hu_GTF34AAA (human, UniProt Q07011 18-255); assay: flow cytometry, HEK293F cells expressing CD137 or mutant [Cont.]
T2 construct: On HEK293F; also called GFT34AAA
T2 chain: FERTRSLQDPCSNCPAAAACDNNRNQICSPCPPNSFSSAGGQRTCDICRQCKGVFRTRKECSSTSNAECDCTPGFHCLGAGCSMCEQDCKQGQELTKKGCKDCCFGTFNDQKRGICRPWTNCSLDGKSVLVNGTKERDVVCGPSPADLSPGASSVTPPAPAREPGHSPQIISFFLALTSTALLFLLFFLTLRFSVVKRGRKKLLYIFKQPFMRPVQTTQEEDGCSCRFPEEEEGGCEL

Hu_FSS53AAA = target: T3, Hu_FSS53AAA (human, UniProt Q07011 18-255); assay: as above
T3 construct: On HEK293F
T3 chain: T2 chain with A17G, A18T, A19F, F36A, S37A, S38A

Hu_CRD2 = target: T4, Hu_CRD2 (human, UniProt Q07011 46-86, limits assumed); assay: flow cytometry, yeast display
T4 construct: also called human CD137 CRD2
T4 chain: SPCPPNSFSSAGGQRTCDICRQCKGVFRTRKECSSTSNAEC

[2] = target: T5, full-length mouse CD137 on the cell surface (mouse, UniProt P20334 24-178); assay: flow cytometry, yeast display
T5 sequence: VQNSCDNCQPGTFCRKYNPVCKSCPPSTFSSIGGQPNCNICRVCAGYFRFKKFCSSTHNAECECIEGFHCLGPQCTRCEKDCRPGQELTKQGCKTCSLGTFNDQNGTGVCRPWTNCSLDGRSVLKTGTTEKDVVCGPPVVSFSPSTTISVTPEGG

[3] = target: T6, full-length human CD137 on the cell surface (human, UniProt Q07011 18-255); assay: flow cytometry, yeast display
T6 construct: also called Human WT

[4] = target: T7, full-length monkey CD137 on the cell surface (cynomolgus monkey, UniProt Q07011 24-179 (human entry)); assay: flow cytometry, HEK293F
T7 chain: T1 chain

[5] = target: T6, full-length human CD137 on the cell …; assay: flow cytometry, HEK293F
[6] = target: T7, full-length monkey CD137 on the cell …; assay: flow cytometry, PMA/ionomycin-activated monkey T cells, antibody 100 nM
[7] = target: T6, full-length human CD137 on the cell …; assay: flow cytometry, PMA/ionomycin-activated human T cells, antibody 100 nM
Hu_CRD1-CRD2-CRD3 = target: T8, Hu_CRD1-CRD2-CRD3 (human, UniProt Q07011 24-118, limits assumed); assay: flow cytometry, yeast display [Cont.]
T8 construct: also called three CRD units (CRD1-CRD2-CRD3) of human CD137

Hu_CRD2-CRD3-CRD4 = target: T9, Hu_CRD2-CRD3-CRD4 (human, UniProt Q07011 46-159, limits assumed); assay: flow cytometry, yeast display [Cont.]
T9 construct: also called three CRD units (CRD2-CRD3-CRD4) of human CD137

Hu_CRD3-CRD4 = target: T10, Hu_CRD3-CRD4 (human, UniProt Q07011 87-159, limits assumed); assay: flow cytometry, yeast display [Cont.]
T10 construct: also called two CRD units (CRD3-CRD4) of human CD137

[8] = target: T6, full-length human CD137 on the cell …; assay: flow cytometry ligand competition, HEK293F cells with human CD137, antibody 100 nM then 33 nM biotinylated CD137L, streptavidin-Alexa 647
[9] = target: T11, human CD137-His6 (Sino Biological #10041-H08H) (human, UniProt Q07011 24-186); assay: SPR Biacore, IgG
T11 construct: Bought; also called human CD137 protein; not shown: His6 tag

[10] = target: T7, full-length monkey CD137 on the cell …; assay: cell-based or functional assay
[11] = target: T6, full-length human CD137 on the cell …; assay: cell-based or functional assay
Hu_EL111AA = target: T12, Hu_EL111AA (human, UniProt Q07011 18-255); assay: flow cytometry, HEK293F
T12 construct: On HEK293F

Hu_GQ109AA = target: T13, Hu_GQ109AA (human, UniProt Q07011 18-255); assay: flow cytometry, HEK293F
T13 construct: On HEK293F

Hu_TN137AA = target: T14, Hu_TN137AA (human, UniProt Q07011 18-255); assay: flow cytometry, HEK293F
T14 construct: On HEK293F
T14 sequence (Q07011 18-255 T137A/N138A): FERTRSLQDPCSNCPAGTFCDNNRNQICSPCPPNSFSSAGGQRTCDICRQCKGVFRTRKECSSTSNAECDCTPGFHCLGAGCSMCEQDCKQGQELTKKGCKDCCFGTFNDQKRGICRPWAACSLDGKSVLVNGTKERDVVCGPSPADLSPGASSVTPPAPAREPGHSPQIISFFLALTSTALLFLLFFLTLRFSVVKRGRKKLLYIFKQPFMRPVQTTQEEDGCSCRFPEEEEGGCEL

T13 sequence (Q07011 18-255 G109A/Q110A): as the sequence (Q07011 18-255 T137A/N138A) above, with G92A, Q93A, A120T, A121N counted along it
T12 sequence (Q07011 18-255 E111A/L112A): as the sequence (Q07011 18-255 T137A/N138A) above, with E94A, L95A, A120T, A121N counted along it

- Kd [1]: 23.1 nM
- Mean (Hu_GTF34AAA): 893
- Mean (Hu_FSS53AAA): 720
- % in upper right quadrant (Hu_CRD2): 0.2%
- Mean (Hu_CRD2): 6280
- % in upper right quadrant [2]: 0.44%
- Mean [2]: 9890
- % in upper right quadrant [3]: 25.9%
- Mean [3]: 58600
- Kd [4]: 2.6 nM
- Kd [5]: 5 nM
- % of cells positive for antibody binding [6]: 8.1%
- % of cells positive for antibody binding [7]: 45.1%
- % in upper right quadrant (Hu_CRD1-CRD2-CRD3): 49.4%
- Mean (Hu_CRD1-CRD2-CRD3): 15100
- % in upper right quadrant (Hu_CRD2-CRD3-CRD4): 0.25%
- Mean (Hu_CRD2-CRD3-CRD4): 14900
- % in upper right quadrant (Hu_CRD3-CRD4): 0.39%
- Mean (Hu_CRD3-CRD4): 11700
- % in upper right quadrant (CD137L signal) [8]: 52.9%
- Median (APC signal of bound biotinylated CD137L) [8]: 46500
- Kd [9]: 38 nM
- koff [9]: 0.0063 s⁻¹
- kon [9]: 160000 M⁻¹ s⁻¹
- NFκB luciferase reporter, 293T cells with monkey CD137: EC50 (read off the curve) [10]: ~1 nM
- NFκB luciferase reporter, 293T cells with human CD137: EC50 (read off the curve) [11]: ~10 nM
- binding result (Hu_EL111AA): binds
- binding result (Hu_GQ109AA): binds
- binding result (Hu_TN137AA): binds
B1: AG10059 (antibody, human IgG4 S228P, kappa, V domains shown)
VH: EVQLVESGGGLVQPGGSLRLSCAASGYSITSGHYWAWIRQAPGKGLEWVSSISGYGSTTYYADSVKGRFTISRDNSKNTLYLQLNSLRAEDTAVYYCARGGSDAVLGDWFAYWGQGTLVTVSS
VL: DIQLTQSPSSLSASVGDRVTITCRASQGIGSFLAWYQQKPGKAPKLLIYDASNLETGVPSRFSGSGSGTDFTLTISSLQPEDFATYYCQQGYYLWTFGQGTKVEIKR
- binding result (Hu_GTF34AAA): no binding (tested: 100 nM (as in Example 5))
- binding result (Hu_FSS53AAA): no binding (tested: 100 nM (as in Example 5))

- Kd [1]: 9.3 nM
- Mean (Hu_GTF34AAA): 878
- Mean (Hu_FSS53AAA): 778
- % in upper right quadrant (Hu_CRD2): 0.24%
- Mean (Hu_CRD2): 13200
- % in upper right quadrant [2]: 41.1%
- Mean [2]: 12600
- % in upper right quadrant [3]: 30.7%
- Mean [3]: 64700
- Kd [4]: 2 nM
- Kd [5]: 1.8 nM
- % of cells positive for antibody binding [6]: 9.8%
- % of cells positive for antibody binding [7]: 52%
- % in upper right quadrant (Hu_CRD1-CRD2-CRD3): 55.6%
- Mean (Hu_CRD1-CRD2-CRD3): 20000
- % in upper right quadrant (Hu_CRD2-CRD3-CRD4): 0.91%
- Mean (Hu_CRD2-CRD3-CRD4): 7680
- % in upper right quadrant (Hu_CRD3-CRD4): 0.19%
- Mean (Hu_CRD3-CRD4): 18200
- % in upper right quadrant (CD137L signal) [8]: 37.6%
- Median (APC signal of bound biotinylated CD137L) [8]: 22300
- Kd [9]: 5.9 nM
- koff [9]: 0.0024 s⁻¹
- kon [9]: 410000 M⁻¹ s⁻¹
- NFκB luciferase reporter, 293T cells with monkey CD137: EC50 (read off the curve) [10]: ~1 nM
- NFκB luciferase reporter, 293T cells with human CD137: EC50 (read off the curve) [11]: ~5 nM
- binding result (Hu_EL111AA): binds
- binding result (Hu_GQ109AA): binds
- binding result (Hu_TN137AA): binds
B2: AG10058 (antibody, human IgG4 S228P, kappa, V domains shown)
VH: EVQLVESGGGLVQPGGSLRLSCAASGFSLSTSGVGVGWIRQAPGKGLEWLALIDWDDDKYYSPSLKSRLTISRDNSKNTLYLQLNSLRAEDTAVYYCARGGSDTVLGDWFAYWGQGTLVTVSS
VL: B1 VL with G28S, I29V, G30S, S31P, F32Y, N53S, T56S, Y93S
- binding result (Hu_GTF34AAA): no binding (tested: 100 nM (as in Example 5))
- binding result (Hu_FSS53AAA): no binding (tested: 100 nM (as in Example 5))
